Assay results: patent US11833164B2, “Methods of treating Fabry disease in patients having a mutation in the GLA gene” (Amicus Therapeutics, Inc., priority 2019, dated 2023)

Tested on: mutant form of α-Gal A expressed in HEK-293 cells
Test: HEK assay (GLP HEK / Migalastat Amenability Assay): α-Gal A activity in lysates of transiently transfected HEK-293 cells incubated with or without 10 μM migalastat
Assay type: cell-based, human
Settings: for Absolute increase (% WT) / Relative increase: 10 μM migalastat versus baseline; for Baseline α-Gal A activity (% WT): absence of migalastat; for Baseline α-Gal A activity (% WT) / 10 μM migalastat α-Gal A activity (% WT): percentage of baseline wild-type α-Gal A activity; for Baseline α-Gal A activity (% WT) / Baseline α-Gal A activity / 10 μM migalastat α-Gal A activity / 10 μM migalastat α-Gal A activity (% WT): mean ± SEM; for Baseline α-Gal A activity / 10 μM migalastat α-Gal A activity: lysates of HEK-293 cells transiently transfected with the mutant form; for Baseline α-Gal A activity: incubated 5 days in absence of migalastat; for 10 μM migalastat α-Gal A activity: incubated 5 days with 10 μM migalastat; for 10 μM migalastat α-Gal A activity (% WT): with 10 μM migalastat, 5 days
Summary of the method: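 Activity reported as 4-MU released (nmol/mg/hr), mean±SEM, from lysates of transiently transfected HEK-293 cells expressing mutant α-Gal A, cultured with or without 10 μM migalastat.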

Molecule	Absolute increase (% WT)	Relative increase	Baseline α-Gal A activity (% WT)	Baseline α-Gal A activity [nmol/mg/h]	10 μM migalastat α-Gal A activity [nmol/mg/h]	10 μM migalastat α-Gal A activity (% WT)
D315N (protein) MQLRNPELHLGCALALRFLALVSWDIPGARALDNGLARTPTMGWLHWERFMCNLDCQEEPDSCISEKLFMEMAELMVSEGWKDAGYEYLCIDDCWMAPQRDSEGRLQADPQRFPHGIRQLANYVHSKGLKLGIYADVGNKTCAGFPGSFGYYDIDAQTFADWGVDLLKFDGCYCDSLENLADGYKHMSLALNRTGRSIVYSCEWPLYMWPFQKPNYTEIRQYCNHWRNFADIDDSWKSIKSILDWTSFNQERIVDVAGPGGWNDPDMLVIGNFGLSWNQQVTQMALWAIMAAPLFMSNDLRHISPQAKALLQDKNVIAINQDPLGKQGYQLRQGDNFEVWERPLSGLAWAVAMINRQEIGGPRSYTIAVASLGKGVACNPACFITQLLPVKRKLGFYEWTSRLRSHINPTGTVLLQLENTMQMSLKDLL	17.9	1.5	34.1 ± 1.7	8553 ± 425	13037 ± 869	52.1 ± 3.7
A318D (protein) MQLRNPELHLGCALALRFLALVSWDIPGARALDNGLARTPTMGWLHWERFMCNLDCQEEPDSCISEKLFMEMAELMVSEGWKDAGYEYLCIDDCWMAPQRDSEGRLQADPQRFPHGIRQLANYVHSKGLKLGIYADVGNKTCAGFPGSFGYYDIDAQTFADWGVDLLKFDGCYCDSLENLADGYKHMSLALNRTGRSIVYSCEWPLYMWPFQKPNYTEIRQYCNHWRNFADIDDSWKSIKSILDWTSFNQERIVDVAGPGGWNDPDMLVIGNFGLSWNQQVTQMALWAIMAAPLFMSNDLRHISPQAKALLQDKDVIDINQDPLGKQGYQLRQGDNFEVWERPLSGLAWAVAMINRQEIGGPRSYTIAVASLGKGVACNPACFITQLLPVKRKLGFYEWTSRLRSHINPTGTVLLQLENTMQMSLKDLL	16.9	1.4	42.5 ± 3.6	15357 ± 1499	20838 ± 1817	59.4 ± 5.3
V316L (protein) MQLRNPELHLGCALALRFLALVSWDIPGARALDNGLARTPTMGWLHWERFMCNLDCQEEPDSCISEKLFMEMAELMVSEGWKDAGYEYLCIDDCWMAPQRDSEGRLQADPQRFPHGIRQLANYVHSKGLKLGIYADVGNKTCAGFPGSFGYYDIDAQTFADWGVDLLKFDGCYCDSLENLADGYKHMSLALNRTGRSIVYSCEWPLYMWPFQKPNYTEIRQYCNHWRNFADIDDSWKSIKSILDWTSFNQERIVDVAGPGGWNDPDMLVIGNFGLSWNQQVTQMALWAIMAAPLFMSNDLRHISPQAKALLQDKDLIAINQDPLGKQGYQLRQGDNFEVWERPLSGLAWAVAMINRQEIGGPRSYTIAVASLGKGVACNPACFITQLLPVKRKLGFYEWTSRLRSHINPTGTVLLQLENTMQMSLKDLL	33.9	1.7	47.4 ± 3.9	12854 ± 958	21812 ± 1450	81.3 ± 6.3
D315V (protein) MQLRNPELHLGCALALRFLALVSWDIPGARALDNGLARTPTMGWLHWERFMCNLDCQEEPDSCISEKLFMEMAELMVSEGWKDAGYEYLCIDDCWMAPQRDSEGRLQADPQRFPHGIRQLANYVHSKGLKLGIYADVGNKTCAGFPGSFGYYDIDAQTFADWGVDLLKFDGCYCDSLENLADGYKHMSLALNRTGRSIVYSCEWPLYMWPFQKPNYTEIRQYCNHWRNFADIDDSWKSIKSILDWTSFNQERIVDVAGPGGWNDPDMLVIGNFGLSWNQQVTQMALWAIMAAPLFMSNDLRHISPQAKALLQDKVVIAINQDPLGKQGYQLRQGDNFEVWERPLSGLAWAVAMINRQEIGGPRSYTIAVASLGKGVACNPACFITQLLPVKRKLGFYEWTSRLRSHINPTGTVLLQLENTMQMSLKDLL	24.8	1.8	31.2 ± 3.6	8191 ± 717	14580 ± 1235	56 ± 6
I317M (protein) MQLRNPELHLGCALALRFLALVSWDIPGARALDNGLARTPTMGWLHWERFMCNLDCQEEPDSCISEKLFMEMAELMVSEGWKDAGYEYLCIDDCWMAPQRDSEGRLQADPQRFPHGIRQLANYVHSKGLKLGIYADVGNKTCAGFPGSFGYYDIDAQTFADWGVDLLKFDGCYCDSLENLADGYKHMSLALNRTGRSIVYSCEWPLYMWPFQKPNYTEIRQYCNHWRNFADIDDSWKSIKSILDWTSFNQERIVDVAGPGGWNDPDMLVIGNFGLSWNQQVTQMALWAIMAAPLFMSNDLRHISPQAKALLQDKDVMAINQDPLGKQGYQLRQGDNFEVWERPLSGLAWAVAMINRQEIGGPRSYTIAVASLGKGVACNPACFITQLLPVKRKLGFYEWTSRLRSHINPTGTVLLQLENTMQMSLKDLL	10.2	11.7	1 ± 0.1	340 ± 29	3988 ± 177	11.2 ± 0.8
V316A (protein) MQLRNPELHLGCALALRFLALVSWDIPGARALDNGLARTPTMGWLHWERFMCNLDCQEEPDSCISEKLFMEMAELMVSEGWKDAGYEYLCIDDCWMAPQRDSEGRLQADPQRFPHGIRQLANYVHSKGLKLGIYADVGNKTCAGFPGSFGYYDIDAQTFADWGVDLLKFDGCYCDSLENLADGYKHMSLALNRTGRSIVYSCEWPLYMWPFQKPNYTEIRQYCNHWRNFADIDDSWKSIKSILDWTSFNQERIVDVAGPGGWNDPDMLVIGNFGLSWNQQVTQMALWAIMAAPLFMSNDLRHISPQAKALLQDKDAIAINQDPLGKQGYQLRQGDNFEVWERPLSGLAWAVAMINRQEIGGPRSYTIAVASLGKGVACNPACFITQLLPVKRKLGFYEWTSRLRSHINPTGTVLLQLENTMQMSLKDLL	22.7	1.4	48.8 ± 4.1	13166 ± 1029	18908 ± 1577	71.5 ± 7.1
I317V (protein) MQLRNPELHLGCALALRFLALVSWDIPGARALDNGLARTPTMGWLHWERFMCNLDCQEEPDSCISEKLFMEMAELMVSEGWKDAGYEYLCIDDCWMAPQRDSEGRLQADPQRFPHGIRQLANYVHSKGLKLGIYADVGNKTCAGFPGSFGYYDIDAQTFADWGVDLLKFDGCYCDSLENLADGYKHMSLALNRTGRSIVYSCEWPLYMWPFQKPNYTEIRQYCNHWRNFADIDDSWKSIKSILDWTSFNQERIVDVAGPGGWNDPDMLVIGNFGLSWNQQVTQMALWAIMAAPLFMSNDLRHISPQAKALLQDKDVVAINQDPLGKQGYQLRQGDNFEVWERPLSGLAWAVAMINRQEIGGPRSYTIAVASLGKGVACNPACFITQLLPVKRKLGFYEWTSRLRSHINPTGTVLLQLENTMQMSLKDLL	18.6	1.3	55 ± 6.1	14885 ± 1495	19927 ± 1565	73.6 ± 5.5
D315Y (protein) MQLRNPELHLGCALALRFLALVSWDIPGARALDNGLARTPTMGWLHWERFMCNLDCQEEPDSCISEKLFMEMAELMVSEGWKDAGYEYLCIDDCWMAPQRDSEGRLQADPQRFPHGIRQLANYVHSKGLKLGIYADVGNKTCAGFPGSFGYYDIDAQTFADWGVDLLKFDGCYCDSLENLADGYKHMSLALNRTGRSIVYSCEWPLYMWPFQKPNYTEIRQYCNHWRNFADIDDSWKSIKSILDWTSFNQERIVDVAGPGGWNDPDMLVIGNFGLSWNQQVTQMALWAIMAAPLFMSNDLRHISPQAKALLQDKYVIAINQDPLGKQGYQLRQGDNFEVWERPLSGLAWAVAMINRQEIGGPRSYTIAVASLGKGVACNPACFITQLLPVKRKLGFYEWTSRLRSHINPTGTVLLQLENTMQMSLKDLL	14.2	1.4	34.5 ± 3.5	9198 ± 1179	12674 ± 1008	48.7 ± 2.4
I317L (protein) MQLRNPELHLGCALALRFLALVSWDIPGARALDNGLARTPTMGWLHWERFMCNLDCQEEPDSCISEKLFMEMAELMVSEGWKDAGYEYLCIDDCWMAPQRDSEGRLQADPQRFPHGIRQLANYVHSKGLKLGIYADVGNKTCAGFPGSFGYYDIDAQTFADWGVDLLKFDGCYCDSLENLADGYKHMSLALNRTGRSIVYSCEWPLYMWPFQKPNYTEIRQYCNHWRNFADIDDSWKSIKSILDWTSFNQERIVDVAGPGGWNDPDMLVIGNFGLSWNQQVTQMALWAIMAAPLFMSNDLRHISPQAKALLQDKDVLAINQDPLGKQGYQLRQGDNFEVWERPLSGLAWAVAMINRQEIGGPRSYTIAVASLGKGVACNPACFITQLLPVKRKLGFYEWTSRLRSHINPTGTVLLQLENTMQMSLKDLL	16.5	1.3	54.4 ± 4.9	14780 ± 1222	18770 ± 1141	70.9 ± 5.6
